Biological target: ΔRSC3
Assay: ELISA, antigen coated, IgG1

Substance | fold less binding than to RSC3 [fold]
VRC-PG04 (antibody) | 100
VRC-PG04b (antibody) | 100

Reference: US10273291
